The record followed here is publication PMC10421740, “A universal deep-learning model for zinc finger design enables transcription factor reprogramming”.

Series [1] addresses ZFN pair Astr 24ABC + Astr 24FED (synthetic construct, UniProt P14870;P14870 384-579;384-579). The experiment in a line: Zn; U2OS eGFP disruption, 3 days after nucleofection. As to conditions: tags: N-terminal 3xFLAG and SV40 NLS (kept in the assay, left out here); copies: 1;1.
The target of series [2] is ZFN pair Astr 20ABC + Astr 20FED (synthetic construct, UniProt P14870;P14870 384-579;384-579). Described as above. Conditions: tags: N-terminal 3xFLAG and SV40 NLS (kept in the assay, left out here); copies: 1;1.
Series [3] addresses ZFN pair Astr 2ABC + Astr 2FED (synthetic construct, UniProt P14870;P14870 384-579;384-579). The series is described as above. As to conditions: tags: N-terminal 3xFLAG and SV40 NLS (kept in the assay, left out here); copies: 1;1.
The target of series [4] is ZFN pair Astr 27ABC + Astr 27FED (synthetic construct, UniProt P14870;P14870 384-579;384-579). The description is as above. As to conditions: tags: N-terminal 3xFLAG and SV40 NLS (kept in the assay, left out here); copies: 1;1.
Series [5] addresses ZFN pair Astr 1ABC + Astr 1FED (synthetic construct, UniProt P14870;P14870 384-579;384-579). The series is described as above. Conditions: tags: N-terminal 3xFLAG and SV40 NLS (kept in the assay, left out here); copies: 1;1.
The target of series [6] is ZFN pair Astr 26ABC + Astr 26FED (synthetic construct, UniProt P14870;P14870 384-579;384-579). The series is described as above. Conditions: tags: N-terminal 3xFLAG and SV40 NLS (kept in the assay, left out here); copies: 1;1.
The target of series [7] is ZFN pair Astr 10ABC + Astr 10FED (synthetic construct, UniProt P14870;P14870 384-579;384-579). Described as above. Conditions: tags: N-terminal 3xFLAG and SV40 NLS (kept in the assay, left out here); copies: 1;1.
The target in series [8] is ZFN pair Astr 30ABC + Astr 30FED (synthetic construct, UniProt P14870;P14870 384-579;384-579). Described as above. As to conditions: tags: N-terminal 3xFLAG and SV40 NLS (kept in the assay, left out here); copies: 1;1.
In series [9] the target is ZFN pair Astr 25ABC + Astr 25FED (synthetic construct, UniProt P14870;P14870 384-579;384-579). The description is as above. As to conditions: tags: N-terminal 3xFLAG and SV40 NLS (kept in the assay, left out here); copies: 1;1.
In series [10] the target is ZFN pair Astr 31ABC + Astr 31FED (synthetic construct, UniProt P14870;P14870 384-579;384-579). The description is as above. As to conditions: tags: N-terminal 3xFLAG and SV40 NLS (kept in the assay, left out here); copies: 1;1.
Series [11] deals with ZFN pair Astr 23ABC + Astr 23FED (synthetic construct, UniProt P14870;P14870 384-579;384-579). The description is as above. Conditions: tags: N-terminal 3xFLAG and SV40 NLS (kept in the assay, left out here); copies: 1;1.
In series [12] the target is ZFN pair Astr 28ABC + Astr 28FED (synthetic construct, UniProt P14870;P14870 384-579;384-579). Described as above. Conditions: tags: N-terminal 3xFLAG and SV40 NLS (kept in the assay, left out here); copies: 1;1.
Series [13] concerns the target T1, KLF6 reprogrammed with array Tet1 For (synthetic construct, UniProt Q99612 1-199).
T1 chain: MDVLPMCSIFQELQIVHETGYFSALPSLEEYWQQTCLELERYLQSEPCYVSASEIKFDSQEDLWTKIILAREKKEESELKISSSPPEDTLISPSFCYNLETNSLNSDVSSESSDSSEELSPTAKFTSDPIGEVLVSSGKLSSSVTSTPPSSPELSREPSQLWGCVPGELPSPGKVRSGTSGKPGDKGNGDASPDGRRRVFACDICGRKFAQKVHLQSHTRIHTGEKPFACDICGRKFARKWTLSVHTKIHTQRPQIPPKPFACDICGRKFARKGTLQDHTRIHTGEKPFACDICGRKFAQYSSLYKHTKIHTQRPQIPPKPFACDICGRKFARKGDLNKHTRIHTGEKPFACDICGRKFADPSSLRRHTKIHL
The experiment in a line: Zn; HEK293T, 7x tetO minimal CMV GFP reporter.

Series [14] deals with T2, KLF6 reprogrammed with array Tet2 For (synthetic construct, UniProt Q99612 1-199).
T2 chain: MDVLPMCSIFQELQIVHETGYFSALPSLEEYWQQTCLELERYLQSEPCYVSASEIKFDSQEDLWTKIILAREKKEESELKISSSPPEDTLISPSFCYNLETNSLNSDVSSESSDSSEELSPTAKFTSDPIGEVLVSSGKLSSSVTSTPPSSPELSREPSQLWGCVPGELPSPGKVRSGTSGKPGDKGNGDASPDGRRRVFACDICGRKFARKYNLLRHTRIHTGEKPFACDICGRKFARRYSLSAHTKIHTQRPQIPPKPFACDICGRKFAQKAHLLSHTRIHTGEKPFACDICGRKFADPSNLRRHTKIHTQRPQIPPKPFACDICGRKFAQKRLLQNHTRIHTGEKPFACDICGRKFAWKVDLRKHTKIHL
Nature of the series: Zn; HEK293T, 7x tetO minimal CMV GFP reporter.

The target in series [15] is ZIM3 reprogrammed with array Tet1 For (synthetic construct, UniProt Q96PE6 1-166). Nature of the series: Zn; HEK293T, 7x tetO CMV eGFP reporter.
Series [16] deals with ZIM3 reprogrammed with array Tet2 For (synthetic construct, UniProt Q96PE6 1-166). The experiment in a line: Zn; HEK293T, 7x tetO CMV eGFP reporter.
In series [17] the target is ZFN pair Astr 22ABC + Astr 22FED (synthetic construct, UniProt P14870;P14870 384-579;384-579). Nature of the series: Zn; U2OS eGFP disruption, 3 days after nucleofection. Conditions: tags: N-terminal 3xFLAG and SV40 NLS (kept in the assay, left out here); copies: 1;1.
Series [18] concerns the target ZFN pair Astr 12ABC + Astr 12FED (synthetic construct, UniProt P14870;P14870 384-579;384-579). The description is as above. As to conditions: tags: N-terminal 3xFLAG and SV40 NLS (kept in the assay, left out here); copies: 1;1.
Series [19] deals with ZFN pair Astr 18ABC + Astr 18FED (synthetic construct, UniProt P14870;P14870 384-579;384-579). Described as above. Conditions: tags: N-terminal 3xFLAG and SV40 NLS (kept in the assay, left out here); copies: 1;1.
Series [20] deals with ZFN pair Astr 29ABC + Astr 29FED (synthetic construct, UniProt P14870;P14870 384-579;384-579). The description is as above. As to conditions: tags: N-terminal 3xFLAG and SV40 NLS (kept in the assay, left out here); copies: 1;1.

Sequence of ZFN pair Astr 26ABC + Astr 26FED (P14870 other isoform, or with tags, fused parts or gaps, chain 1 of 2): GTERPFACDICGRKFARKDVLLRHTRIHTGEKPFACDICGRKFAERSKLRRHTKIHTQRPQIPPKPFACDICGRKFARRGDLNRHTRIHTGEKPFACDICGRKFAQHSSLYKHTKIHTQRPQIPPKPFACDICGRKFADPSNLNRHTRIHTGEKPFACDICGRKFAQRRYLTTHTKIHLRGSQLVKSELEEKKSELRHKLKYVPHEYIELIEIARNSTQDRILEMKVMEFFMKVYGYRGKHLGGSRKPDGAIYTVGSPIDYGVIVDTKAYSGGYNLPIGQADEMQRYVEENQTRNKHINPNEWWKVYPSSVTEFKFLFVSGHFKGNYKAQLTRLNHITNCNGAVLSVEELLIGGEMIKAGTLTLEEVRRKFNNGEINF
Sequence of ZFN pair Astr 26ABC + Astr 26FED (P14870 other isoform, or with tags, fused parts or gaps, chain 2 of 2): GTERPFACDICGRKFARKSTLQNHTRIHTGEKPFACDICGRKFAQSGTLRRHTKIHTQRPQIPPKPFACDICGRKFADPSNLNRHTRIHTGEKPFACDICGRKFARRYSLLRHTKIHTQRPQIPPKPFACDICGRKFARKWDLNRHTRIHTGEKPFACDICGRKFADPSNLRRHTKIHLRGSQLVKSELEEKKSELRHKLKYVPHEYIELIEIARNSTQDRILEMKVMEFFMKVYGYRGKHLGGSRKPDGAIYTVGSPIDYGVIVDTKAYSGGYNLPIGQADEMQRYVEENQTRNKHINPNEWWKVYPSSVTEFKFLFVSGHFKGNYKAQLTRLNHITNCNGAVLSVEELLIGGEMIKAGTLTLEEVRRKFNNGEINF
Sequence of ZFN pair Astr 24ABC + Astr 24FED (P14870 other isoform, or with tags, fused parts or gaps, chain 1 of 2): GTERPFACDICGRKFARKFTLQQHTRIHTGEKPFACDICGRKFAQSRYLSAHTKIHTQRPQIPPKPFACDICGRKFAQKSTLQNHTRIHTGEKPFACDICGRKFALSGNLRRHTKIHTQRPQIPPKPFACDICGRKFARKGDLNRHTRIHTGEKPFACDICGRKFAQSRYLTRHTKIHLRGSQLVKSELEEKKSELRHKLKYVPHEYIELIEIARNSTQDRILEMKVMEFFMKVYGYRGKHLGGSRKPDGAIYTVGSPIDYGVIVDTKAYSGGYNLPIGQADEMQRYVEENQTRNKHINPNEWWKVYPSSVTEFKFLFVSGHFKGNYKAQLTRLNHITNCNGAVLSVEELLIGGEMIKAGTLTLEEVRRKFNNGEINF
Sequence of ZFN pair Astr 24ABC + Astr 24FED (P14870 other isoform, or with tags, fused parts or gaps, chain 2 of 2): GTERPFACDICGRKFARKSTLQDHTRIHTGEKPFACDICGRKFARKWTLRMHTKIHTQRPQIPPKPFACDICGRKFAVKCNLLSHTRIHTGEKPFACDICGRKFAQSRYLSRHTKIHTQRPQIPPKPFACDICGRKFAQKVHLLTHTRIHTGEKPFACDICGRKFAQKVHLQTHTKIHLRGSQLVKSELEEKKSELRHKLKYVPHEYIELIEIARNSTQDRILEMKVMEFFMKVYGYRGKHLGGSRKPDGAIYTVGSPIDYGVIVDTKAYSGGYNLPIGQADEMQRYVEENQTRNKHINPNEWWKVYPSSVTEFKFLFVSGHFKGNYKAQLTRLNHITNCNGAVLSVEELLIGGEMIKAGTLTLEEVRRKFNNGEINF
Sequence of ZFN pair Astr 22ABC + Astr 22FED (P14870 other isoform, or with tags, fused parts or gaps, chain 1 of 2): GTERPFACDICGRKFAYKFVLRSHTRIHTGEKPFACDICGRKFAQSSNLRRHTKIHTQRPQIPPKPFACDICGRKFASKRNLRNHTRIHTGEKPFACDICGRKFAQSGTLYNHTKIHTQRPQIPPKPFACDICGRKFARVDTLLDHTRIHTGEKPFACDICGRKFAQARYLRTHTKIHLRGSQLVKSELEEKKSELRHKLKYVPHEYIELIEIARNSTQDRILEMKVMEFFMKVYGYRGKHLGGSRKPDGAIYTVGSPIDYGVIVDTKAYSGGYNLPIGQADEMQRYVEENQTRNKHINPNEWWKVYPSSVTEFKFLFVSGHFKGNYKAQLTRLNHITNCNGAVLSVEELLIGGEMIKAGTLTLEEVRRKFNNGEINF
Sequence of ZFN pair Astr 22ABC + Astr 22FED (P14870 other isoform, or with tags, fused parts or gaps, chain 2 of 2): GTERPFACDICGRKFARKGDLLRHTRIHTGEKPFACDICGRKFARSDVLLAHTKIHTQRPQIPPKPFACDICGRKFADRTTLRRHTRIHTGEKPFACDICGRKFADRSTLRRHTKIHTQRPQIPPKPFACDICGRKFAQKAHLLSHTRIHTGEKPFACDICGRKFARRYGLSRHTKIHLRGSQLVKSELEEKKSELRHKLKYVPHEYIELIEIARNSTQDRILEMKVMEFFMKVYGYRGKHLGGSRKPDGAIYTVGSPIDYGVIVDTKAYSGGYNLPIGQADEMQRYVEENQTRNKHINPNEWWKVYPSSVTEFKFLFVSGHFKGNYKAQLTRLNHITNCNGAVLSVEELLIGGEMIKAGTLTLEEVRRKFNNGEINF
Sequence of ZFN pair Astr 18ABC + Astr 18FED (P14870 other isoform, or with tags, fused parts or gaps, chain 1 of 2): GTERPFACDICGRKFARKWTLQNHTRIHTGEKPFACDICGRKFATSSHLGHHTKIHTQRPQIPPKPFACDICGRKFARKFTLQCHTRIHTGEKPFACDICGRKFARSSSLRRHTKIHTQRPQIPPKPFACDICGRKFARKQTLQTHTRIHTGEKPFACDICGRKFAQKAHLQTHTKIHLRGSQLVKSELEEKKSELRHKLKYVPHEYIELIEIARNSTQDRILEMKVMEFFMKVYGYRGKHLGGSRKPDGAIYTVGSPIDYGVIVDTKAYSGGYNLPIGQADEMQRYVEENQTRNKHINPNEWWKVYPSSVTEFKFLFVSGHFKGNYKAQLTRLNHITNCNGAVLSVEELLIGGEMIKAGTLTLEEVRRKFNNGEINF
Sequence of ZFN pair Astr 18ABC + Astr 18FED (P14870 other isoform, or with tags, fused parts or gaps, chain 2 of 2): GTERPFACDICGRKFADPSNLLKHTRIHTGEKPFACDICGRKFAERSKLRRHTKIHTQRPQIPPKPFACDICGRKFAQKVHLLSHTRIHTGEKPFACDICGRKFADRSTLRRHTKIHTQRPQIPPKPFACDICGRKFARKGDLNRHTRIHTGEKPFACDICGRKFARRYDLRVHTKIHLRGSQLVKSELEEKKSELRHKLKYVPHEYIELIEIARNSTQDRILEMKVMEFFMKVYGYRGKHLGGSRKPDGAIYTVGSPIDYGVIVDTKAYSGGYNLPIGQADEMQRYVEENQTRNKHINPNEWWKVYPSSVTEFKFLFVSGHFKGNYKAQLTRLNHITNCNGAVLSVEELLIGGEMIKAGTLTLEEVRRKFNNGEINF
Sequence of ZIM3 reprogrammed with array Tet2 For (Q96PE6 other isoform, or with tags, fused parts or gaps): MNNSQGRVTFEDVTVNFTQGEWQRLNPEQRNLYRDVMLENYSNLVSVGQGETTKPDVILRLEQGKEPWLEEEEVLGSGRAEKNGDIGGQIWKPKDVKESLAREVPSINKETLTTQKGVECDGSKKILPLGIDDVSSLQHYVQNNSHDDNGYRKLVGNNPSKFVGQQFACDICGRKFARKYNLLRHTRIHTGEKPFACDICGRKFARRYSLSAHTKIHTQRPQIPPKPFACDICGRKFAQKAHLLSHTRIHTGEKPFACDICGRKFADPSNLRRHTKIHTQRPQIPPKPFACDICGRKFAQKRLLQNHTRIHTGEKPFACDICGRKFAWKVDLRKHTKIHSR
Sequence of ZFN pair Astr 20ABC + Astr 20FED (P14870 other isoform, or with tags, fused parts or gaps, chain 1 of 2): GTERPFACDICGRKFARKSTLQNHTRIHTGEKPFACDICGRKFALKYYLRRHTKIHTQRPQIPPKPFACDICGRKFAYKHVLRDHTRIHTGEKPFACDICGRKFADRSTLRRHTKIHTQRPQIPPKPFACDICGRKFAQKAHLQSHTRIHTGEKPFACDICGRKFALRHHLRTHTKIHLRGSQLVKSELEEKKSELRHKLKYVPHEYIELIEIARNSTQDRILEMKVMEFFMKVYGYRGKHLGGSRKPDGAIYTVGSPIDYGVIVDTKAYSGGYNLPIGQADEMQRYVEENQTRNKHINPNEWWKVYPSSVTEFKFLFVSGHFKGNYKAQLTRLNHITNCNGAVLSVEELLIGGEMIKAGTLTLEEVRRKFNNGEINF
Sequence of ZFN pair Astr 20ABC + Astr 20FED (P14870 other isoform, or with tags, fused parts or gaps, chain 2 of 2): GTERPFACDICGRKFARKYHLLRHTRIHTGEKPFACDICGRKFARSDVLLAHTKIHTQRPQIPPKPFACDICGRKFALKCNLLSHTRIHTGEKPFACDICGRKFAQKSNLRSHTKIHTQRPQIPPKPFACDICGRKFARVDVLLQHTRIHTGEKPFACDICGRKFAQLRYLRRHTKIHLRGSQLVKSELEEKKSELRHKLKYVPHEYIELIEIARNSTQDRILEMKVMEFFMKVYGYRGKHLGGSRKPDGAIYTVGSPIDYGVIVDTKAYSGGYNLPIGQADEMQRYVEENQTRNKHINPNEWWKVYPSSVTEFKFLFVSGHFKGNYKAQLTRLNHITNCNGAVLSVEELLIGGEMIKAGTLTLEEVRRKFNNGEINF
Sequence of ZFN pair Astr 12ABC + Astr 12FED (P14870 other isoform, or with tags, fused parts or gaps, chain 1 of 2): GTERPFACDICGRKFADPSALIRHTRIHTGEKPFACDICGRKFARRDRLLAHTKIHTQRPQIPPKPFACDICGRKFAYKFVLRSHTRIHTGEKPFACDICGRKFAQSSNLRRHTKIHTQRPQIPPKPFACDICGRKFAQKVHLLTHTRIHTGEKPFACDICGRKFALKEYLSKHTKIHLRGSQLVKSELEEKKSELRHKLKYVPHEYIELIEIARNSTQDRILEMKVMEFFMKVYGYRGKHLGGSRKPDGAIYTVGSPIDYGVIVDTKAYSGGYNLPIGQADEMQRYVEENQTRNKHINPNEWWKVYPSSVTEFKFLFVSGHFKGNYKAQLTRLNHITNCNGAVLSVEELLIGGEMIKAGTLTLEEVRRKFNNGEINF
Sequence of ZFN pair Astr 12ABC + Astr 12FED (P14870 other isoform, or with tags, fused parts or gaps, chain 2 of 2): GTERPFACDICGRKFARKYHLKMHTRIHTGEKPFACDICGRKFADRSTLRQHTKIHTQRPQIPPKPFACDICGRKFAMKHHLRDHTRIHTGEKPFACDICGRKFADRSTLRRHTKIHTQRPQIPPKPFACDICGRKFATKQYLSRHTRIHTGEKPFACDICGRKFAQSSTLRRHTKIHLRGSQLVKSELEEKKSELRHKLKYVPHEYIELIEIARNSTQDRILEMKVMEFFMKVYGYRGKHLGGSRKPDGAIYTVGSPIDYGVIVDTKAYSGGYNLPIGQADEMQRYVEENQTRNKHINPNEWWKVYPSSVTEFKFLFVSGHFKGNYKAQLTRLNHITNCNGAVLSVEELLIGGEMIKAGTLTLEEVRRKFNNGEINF

B1: eGFP site 24 (12 fingers) (dsDNA)
DNA 1: ACAACGTCTATATCATGGCCGACAAGCAGAAGAACGGCATCAAGGTGA
DNA 2: TCACCTTGATGCCGTTCTTCTGCTTGTCGGCCATGATATAGACGTTGT
As to B1, in [1], the binding signal was ~52 % GFP-negative cells (higher = more activity).

B2: eGFP site 20 (12 fingers) (dsDNA)
DNA 1: TCGAGCTGAAGGGCATCGACTTCAAGGAGGACGGCAACATCCTGGGGC
DNA 2: GCCCCAGGATGTTGCCGTCCTCCTTGAAGTCGATGCCCTTCAGCTCGA
As for B2, the binding signal in series [2] is ~42 % GFP-negative cells (higher = more activity).

B3: eGFP site 2 (12 fingers) (dsDNA)
DNA 1: AGTTCAGCGTGTCCGGCGAGGGCGAGGGCGATGCCACCTACGGCAAGC
DNA 2: GCTTGCCGTAGGTGGCATCGCCCTCGCCCTCGCCGGACACGCTGAACT
Regarding B3, the binding signal in series [3] is ~90 % GFP-negative cells (higher = more activity).

B4: eGFP site 27 (12 fingers) (dsDNA)
DNA 1: TCCTGGGGCACAAGCTGGAGTACAACTACAACAGCCACAACGTCTATA
DNA 2: TATAGACGTTGTGGCTGTTGTAGTTGTACTCCAGCTTGTGCCCCAGGA
On to B4, for which, in series [4], the binding signal was ~46 % GFP-negative cells (higher = more activity).

B5: eGFP site 1 (12 fingers) (dsDNA)
DNA 1: GAGGAGCTGTTCACCGGGGTGGTGCCCATCCTGGTCGAGCTGGACGGC
DNA 2: GCCGTCCAGCTCGACCAGGATGGGCACCACCCCGGTGAACAGCTCCTC
In the case of B5, the binding signal in [5] was ~85 % GFP-negative cells (higher = more activity).

B6: eGFP site 26 (12 fingers) (dsDNA)
DNA 1: CCGCGCCGAGGTGAAGTTCGAGGGCGACACCCTGGTGAACCGCATCGA
DNA 2: TCGATGCGGTTCACCAGGGTGTCGCCCTCGAACTTCACCTCGGCGCGG
With B6, the binding signal in [6] was ~47 % GFP-negative cells (higher = more activity).

B7: eGFP site 10 (12 fingers) (dsDNA)
DNA 1: TGCCACCTACGGCAAGCTGACCCTGAAGTTCATCTGCACCACCGGCAA
DNA 2: TTGCCGGTGGTGCAGATGAACTTCAGGGTCAGCTTGCCGTAGGTGGCA
For B7, the binding signal in series [7] was ~78 % GFP-negative cells (higher = more activity).

B8: eGFP site 30 (12 fingers) (dsDNA)
DNA 1: CAAGGGCGAGGAGCTGTTCACCGGGGTGGTGCCCATCCTGGTCGAGCT
DNA 2: AGCTCGACCAGGATGGGCACCACCCCGGTGAACAGCTCCTCGCCCTTG
As to B8, the binding signal in [8] is ~14 % GFP-negative cells (higher = more activity).

B9: eGFP site 25 (12 fingers) (dsDNA)
DNA 1: GCGAGGGCGAGGGCGATGCCACCTACGGCAAGCTGACCCTGAAGTTCA
DNA 2: TGAACTTCAGGGTCAGCTTGCCGTAGGTGGCATCGCCCTCGCCCTCGC
As to B9, in [9], the binding signal was ~39 % GFP-negative cells (higher = more activity).

B10: eGFP site 31 (12 fingers) (dsDNA)
DNA 1: GGCAAGCTGACCCTGAAGTTCATCTGCACCACCGGCAAGCTGCCCGTG
DNA 2: CACGGGCAGCTTGCCGGTGGTGCAGATGAACTTCAGGGTCAGCTTGCC
Regarding B10, the binding signal in series [10] is ~72 % GFP-negative cells (higher = more activity).

B11: eGFP site 23 (12 fingers) (dsDNA)
DNA 1: GGCATCGACTTCAAGGAGGACGGCAACATCCTGGGGCACAAGCTGGAG
DNA 2: CTCCAGCTTGTGCCCCAGGATGTTGCCGTCCTCCTTGAAGTCGATGCC
For the molecule B11, the binding signal in series [11] is ~35 % GFP-negative cells (higher = more activity).

B12: eGFP site 28 (12 fingers) (dsDNA)
DNA 1: TCCAGGAGCGCACCATCTTCTTCAAGGACGACGGCAACTACAAGACCC
DNA 2: GGGTCTTGTAGTTGCCGTCGTCCTTGAAGAAGATGGTGCGCTCCTGGA
Consider B12, for which, in series [12], the binding signal was ~32 % GFP-negative cells (higher = more activity).

B13: tetO (dsDNA)
DNA 1: GTCTCTATCACTGATAGGGAGA
DNA 2: TCTCCCTATCAGTGATAGAGAC
B13: the binding signal is ~9500 mean GFP fluorescence (higher = more activity) in series [13]; ~15500 mean GFP fluorescence (higher = more activity) in series [14]; ~0.68 normalised eGFP fluorescence (lower = more activity, repressor) in series [15]; ~0.51 normalised eGFP fluorescence (lower = more activity, repressor) in series [16].

B14: eGFP site 22 (12 fingers) (dsDNA)
DNA 1: CAAGTTCAGCGTGTCCGGCGAGGGCGAGGGCGATGCCACCTACGGCAA
DNA 2: TTGCCGTAGGTGGCATCGCCCTCGCCCTCGCCGGACACGCTGAACTTG
On to B14, for which, in series [17], the binding signal is ~73 % GFP-negative cells (higher = more activity).

B15: eGFP site 12 (12 fingers) (dsDNA)
DNA 1: TGACCCTGAAGTTCATCTGCACCACCGGCAAGCTGCCCGTGCCCTGGC
DNA 2: GCCAGGGCACGGGCAGCTTGCCGGTGGTGCAGATGAACTTCAGGGTCA
For the molecule B15, in [18], the binding signal was ~43 % GFP-negative cells (higher = more activity).

B16: eGFP site 18 (12 fingers) (dsDNA)
DNA 1: ACATGAAGCAGCACGACTTCTTCAAGTCCGCCATGCCCGAAGGCTACG
DNA 2: CGTAGCCTTCGGGCATGGCGGACTTGAAGAAGTCGTGCTGCTTCATGT
As to B16, in series [19], the binding signal was ~71 % GFP-negative cells (higher = more activity).

B17: eGFP site 29 (12 fingers) (dsDNA)
DNA 1: CGGCCACAAGTTCAGCGTGTCCGGCGAGGGCGAGGGCGATGCCACCTA
DNA 2: TAGGTGGCATCGCCCTCGCCCTCGCCGGACACGCTGAACTTGTGGCCG
In the case of B17, in series [20], the binding signal was ~40 % GFP-negative cells (higher = more activity).
